Test [1] deals with αIIb (INTEGRIN, ALPHA 2B; PLATELET GLYCOPROTEIN IIB OF IIB/IIIA COMPLEX, ANTIGEN CD41) (human) (UniProt P08514). The experiment in a line: αIIb complexes captured, mass spectrometry; No. Expts 2.
Test [2] has as its target αIIbβ3 (human) (UniProt P08514). Description: antibody staining of UCB-derived megakaryocytes, after thrombin receptor-activating peptide.
Test [3] shares this target. Description: antibody staining of UCB-derived megakaryocytes, before thrombin receptor-activating peptide.
The target in test [4] is αIIb (INTEGRIN, ALPHA 2B; PLATELET GLYCOPROTEIN IIB OF IIB/IIIA COMPLEX, ANTIGEN CD41) (human) (UniProt P08514). Description: αIIb complexes captured, mass spectrometry; No. Expts 3.
Test [5] has the same target. Description: αIIb complexes captured, mass spectrometry; No. Expts 4.
The target is the same in test [6]. The experiment in a line: αIIb complexes captured, mass spectrometry; No. Expts 1.
The next test deals with T1, mature αIIbβ3 complex (human, UniProt P08514 32-887; P08514 891-1039; P05106 27-788).
T1 construct: Endogenous, from megakaryocyte lysates
The experiment in a line: co-immunoprecipitation with conformation-specific mAb M148, immunoblot for DNAJC10. (In western blotting, separated proteins are transferred to a membrane and probed.)

On to “HEAT SHOCK 70 kDa PROTEIN 8 (from UniProt P11142 2-646)”, for which the #Peptides in test [1] came out at 11 peptides.
Turning to “PAC1, an activation-dependent, ligand-mimetic anti-αIIbβ3 monoclonal antibody”, the results for the percentage of UCB cells recognized with αIIbβ3 (human) [2] and with αIIbβ3 (human) [3] were 16% and 3%, respectively.
Consider “CHAPERONIN CONTAINING TCP1, SUBUNIT 2 (BETA) (from UniProt P78371 2-535)”, for which the #Peptides in test [1] was 20 peptides.
With “PLASMINOGEN (from UniProt P00747 20-810)”, in test [4], the #Peptides is 22 peptides.
Turning to “ALDEHYDE DEHYDROGENASE 18 FAMILY, MEMBER A1 (from UniProt P54886 1-795)”, in test [1], the #Peptides turned out to be 16 peptides.
As to KIAA1529 (from UniProt Q9P1Z9 1-1701), the #Peptides in test [4] worked out at 62 peptides.
“DEAH (ASP-GLU-ALA-HIS) BOX PO… 15 (from UniProt O43143 1-795)”: the #Peptides in test [1] amounted to 68 peptides.
For “ASPARTYL-TRNA … (from UniProt P14868 1-501)”, the #Peptides in test [5] came out at 65 peptides.
In turn, “DYNAMIN BINDING PROTEIN (from UniProt Q6XZF7 1-1577)” had a #Peptides in test [1] of 30 peptides.
“SHROOM3 F-ACTIN BINDING PROTEIN (from UniProt Q8TF72 1-1996)” registered a #Peptides in test [4] of 7 peptides.
For the molecule “5′-NUCLEOTIDASE DOMAIN CONTAINING 2 (from UniProt Q9H857 1-520)”, the #Peptides in test [1] is 34 peptides.
In test [1], “FILAMIN A, ALPHA (ACTIN BINDING PROTEIN 280) (from UniProt P21333 2-2647)” had a #Peptides of 14 peptides.
Same read-out and setting: then “HETEROGENEOUS NUCLEAR RIBONUCLEOPROTEIN L (from UniProt P14866 1-589)”, with 26 peptides.
“THIOREDOXIN DOMAIN CONTAINING 4 (ENDOPLASMIC RETICULUM) (from UniProt Q9BS26 30-406)” yielded a #Peptides in test [4] of 20 peptides.
“PEROXIREDOXIN 3 (from UniProt P30048 62-256)” showed a #Peptides in test [6] of 4 peptides.
Molecule “… EXPRESSED 10 (from UniProt Q86TG7 1-708)” showed a #Peptides in test [6] of 3 peptides.
“FERM AND PDZ DOMAIN CONTAINING 1 (from UniProt Q5SYB0 1-1578)” registered a #Peptides in test [6] of 4 peptides.
For “…-3-PHOSPHATE DEHYDROGENASE (from UniProt P04406 2-335)”, the #Peptides in test [6] came to 3 peptides.
Still for that read-out and setting: then “RAN BINDING PROTEIN 10 (from UniProt Q6VN20 2-620)”, with 2 peptides; and “SPLICING FACTOR 1 (from UniProt Q15637 2-639)”, with 4 peptides.
For CULLIN 5 (from UniProt Q93034 1-780), the #Peptides in test [6] turned out to be 5 peptides.
In the case of “SEC23 HOMOLOG A (S. …) (from UniProt Q15436 2-765)”, the #Peptides in test [6] worked out at 3 peptides.
The molecule “GLUTAMATE DEHYDROGENASE 1 (from UniProt P00367 54-558)” had a #Peptides in test [4] of 83 peptides.
Regarding “CARS2 (HYPOTHETICAL PROTEIN FLJ12118) (from UniProt Q9HA77 1-564)”, in test [6], the #Peptides came to 9 peptides.
In test [6], “REGULATION OF NUCLEAR pre-mRNA DOMAIN CONTAINING 1A (from UniProt Q96P16 2-312)” displayed a #Peptides of 7 peptides.
“SEMENOGELIN I (from UniProt P04279 24-462)” yielded a #Peptides in test [6] of 3 peptides.
The same measure, in the same setting: then “CASEIN KINASE 2, ALPHA PRIME PO… (from UniProt P19784 1-350)”, with 3 peptides; and LOC731751 (UNKNOWN PROTEIN), with 15 peptides.
On to “MALIC ENZYME 2, NAD(+)-…, MITOCHONDRIAL (from UniProt P23368 19-584)”, for which the #Peptides in test [6] turned out to be 20 peptides.
Consider “N-ACETYLGLUCOSAMINE KINASE (from UniProt Q9UJ70 2-344)”, for which the #Peptides in test [6] came out at 4 peptides.
The molecule GEPHYRIN (from UniProt Q9NQX3 1-736) yielded a #Peptides in test [6] of 12 peptides.
Molecule “ATAXIN 2-LIKE (from UniProt Q8WWM7 1-1075)” came in with a #Peptides in test [6] of 8 peptides.
With “CITRON (RHO-…, SERINE/THREONINE KINASE 21) (from UniProt O14578 1-2027)”, in test [6], the #Peptides amounted to 4 peptides.
Take “TRYPTOPHANYL TRNA … 2 (from UniProt Q9UGM6 19-360)”: the #Peptides in test [6] amounted to 5 peptides.
RAVER1 (from UniProt Q8IY67 2-606) returned a #Peptides in test [6] of 2 peptides.
In test [1], “TUBULIN, BETA (from UniProt P07437 1-444)” had a #Peptides of 52 peptides.

B1: DNAJC10 (DNAJ (HSP40) HOMOLOG, SUBFAMILY C, MEMBER 10) (other)
chain: DQDFYSLLGVSKTASSREIRQAFKKLALKLHPDKNPNNPNAHGDFLKINRAYEVLKDEDLRKKYDKYGEKGLEDNQGGQYESWNYYRYDFGIYDDDPEIITLERREFDAAVNSGELWFVNFYSPGCSHCHDLAPTWRDFAKEVDGLLRIGAVNCGDDRMLCRMKGVNSYPSLFIFRSGMAPVKYHGDRSKESLVSFAMQHVRSTVTELWTGNFVNSIQTAFAAGIGWLITFCSKGGDCLTSQTRLRLSGMLDGLVNVGWMDCATQDNLCKSLDITTSTTAYFPPGATLNNKEKNSILFLNSLDAKEIYLEVIHNLPDFELLSANTLEDRLAHHRWLLFFHFGKNENSNDPELKKLKTLLKNDHIQVGRFDCSSAPDICSNLYVFQPSLAVFKGQGTKEYEIHHGKKILYDILAFAKESVNSHVTTLGPQNFPANDKEPWLVDFFAPWCPPCRALLPELRRASNLLYGQLKFGTLDCTVHEGLCNMYNIQAYPTTVVFNQSNIHEYEGHHSAEQILEFIEDLMNPSVVSLTPTTFNELVTQRKHNEVWMVDFYSPWCHPCQVLMPEWKRMARTLTGLINVGSIDCQQYHSFCAQENVQRYPEIRFFPPKSNKAYHYHSYNGWNRDAYSLRIWGLGFLPQVSTDLTPQTFSEKVLQGKNHWVIDFYAPWCGPCQNFAPEFELLARMIKGKVKAGKVDCQAYAQTCQKAGIRAYPTVKFYFYERAKRNFQEEQINTRDAKAIAALISEKLETLRNQGKRNKDEL
notes: Endogenous protein in lysates of human UCB-derived megakaryocytes or HEK293 cells
Regarding B1, the binding result in the test with mature αIIbβ3 complex was “no binding”.

The values above are taken from US20100048677A1 (NEW YORK BLOOD CENTER, published 2010).
